In PMC12419796 one finds stoichiometry N data, which are given here for one substance.

The target of this assay is H1N1 A/PR/8/1934 (Cambridge strain) neuraminidase, recombinant soluble tetramer with tetrabrachion domain (Staphylothermus marinus | influenza A virus H1N1 A/PR/8/1934 (Cambridge strain)). Put plainly: cross-linking.

One may read the stoichiometry N as the number of molecules, sites or subunits per partner or assembly. Regarding “H1N1 A/PR/8/1934 (Cambridge strain) neuraminidase, recombinant soluble tetramer with tetrabrachion domain (enzyme)”, the stoichiometry N worked out at 4.
